Key:
[1] = biological target: T1, RsmA (UniProt O69078 1-61); assay: analytical SEC; 50 uM protein, 25 uM RNA; details: protein: recombinant; tags: His tag; chain copies: 2; unstructured
[2] = biological target: T2, RsmA-R44A (UniProt O69078 1-61, R44A); assay: analytical SEC; no significant interaction, RNA largely unbound; details: protein: recombinant; chain copies: 2; unstructured
[3] = biological target: T1, RsmA; assay: ITC; 298 K; 1:1 single-site fit; 50 mM NaCl, 25 mM potassium phosphate pH 7.0; ITC at 298 K (125 uM RNA into 5-10 uM protein); SEC on Superdex 75 with 50 uM protein and 25 uM RNA, temperature not stated; details: protein: recombinant; tags: His tag; chain copies: 2; hairpin
[4] = biological target: T2, RsmA-R44A; assay: analytical SEC; binding virtually eliminated; 50 uM protein, 25 uM RNA; 50 mM NaCl, 25 mM potassium phosphate pH 7.0; ITC at 298 K (125 uM RNA into 5-10 uM protein); SEC on Superdex 75 with 50 uM protein and 25 uM RNA, temperature not stated; details: protein: recombinant; chain copies: 2; hairpin

## GAAGAGGAGCUUUCAUG (ssRNA) [algU RBS RNA]
[1]
  binding result: binds
[2]
  binding result: no binding

## CCCCGAAGGAUCGGGG (structured_RNA) [RsmZ-2 (RsmZ stem-loop 2)]
[3]
  Kd: 276 ± 25 nM
[4]
  binding result: no binding

— paper PMC4066749, “A sequence-based approach for prediction of CsrA/RsmA targets in bacteria with experimental validation in Pseudomonas aeruginosa”
